Data: paper PMC10630337, “Transcriptional reprogramming by mutated IRF4 in lymphoma”

Legend:
[1] = biological target: T1, IRF4-C99R DBD;JUNB DBD;BATF DBD (human;human;human, UniProt Q15306;P17275;Q16520 20-139;269-329;28-87, C99R||); experiment: EMSA; IRF4 composite complex abolished; EMSA: 10 mM HEPES pH 7.9, 70 mM KCl, 5 mM DTT, 1 mM EDTA, 2.5 mM MgCl2, 4% Ficoll, 0.5 mg/ml BSA, 0.1 ug/ml poly(dI-dC); 3-5 ug nuclear extract; temperature not stated; settings: protein: recombinant;recombinant;recombinant; copies: 1;1;1; label: 32P-dCTP Klenow end label; 5' overhang 2 nt before Klenow labeling
T1 sequence 1: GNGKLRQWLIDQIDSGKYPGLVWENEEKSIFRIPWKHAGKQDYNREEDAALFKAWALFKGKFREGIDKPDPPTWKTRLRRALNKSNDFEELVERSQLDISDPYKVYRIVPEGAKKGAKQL
T1 sequence 2: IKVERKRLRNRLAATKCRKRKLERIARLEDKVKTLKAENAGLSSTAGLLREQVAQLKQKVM
T1 sequence 3: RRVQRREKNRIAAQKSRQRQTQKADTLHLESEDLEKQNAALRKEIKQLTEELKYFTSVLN

[2] = biological target: T1, IRF4-C99R DBD;JUNB DBD;BATF DBD; experiment: EMSA; short or long probe not certain; EMSA: 10 mM HEPES pH 7.9, 70 mM KCl, 5 mM DTT, 1 mM EDTA, 2.5 mM MgCl2, 4% Ficoll, 0.5 mg/ml BSA, 0.1 ug/ml poly(dI-dC); 3-5 ug nuclear extract; temperature not stated; settings: protein: recombinant;recombinant;recombinant; copies: 1;1;1; label: 32P-dCTP Klenow end label; 5' overhang 4 nt before Klenow labeling
[3] = biological target: T2, IRF4-WT DBD;JUNB DBD;BATF DBD (human;human;human, UniProt Q15306;P17275;Q16520 20-139;269-329;28-87, ||); experiment: as above; settings: protein: recombinant;recombinant;recombinant; copies: 1;1;1; label: 32P-dCTP Klenow end label; 5' overhang 4 nt before Klenow labeling
T2 sequence 1: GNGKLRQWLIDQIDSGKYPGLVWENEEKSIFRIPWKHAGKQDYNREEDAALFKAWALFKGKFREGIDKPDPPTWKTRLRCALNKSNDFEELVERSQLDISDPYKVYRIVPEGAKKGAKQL
T2 sequence 2: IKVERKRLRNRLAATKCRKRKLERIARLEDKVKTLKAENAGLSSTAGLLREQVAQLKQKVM
T2 sequence 3: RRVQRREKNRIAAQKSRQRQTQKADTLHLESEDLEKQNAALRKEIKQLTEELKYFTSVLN

B1: AICE2FLIP short IRFmut (dsDNA)
DNA 1: AGTGCATGTATGAGTCAGAGATC
DNA 2: AGGATCTCTGACTCATACATGCA
B1: no binding [1].

B2: AICE2 (Bcl11b) short, IRF motif tAcA (dsDNA)
DNA 1: AGTGCATACATGAGTCAGAGATC
DNA 2: AGGATCTCTGACTCATGTATGCA
B2: no binding [1].

B3: AICE2 (Bcl11b) (dsDNA)
DNA 1: AGCTTAGTGCAGAAATGAGTCAGAGATCAAAGAAG
DNA 2: AGCTCTTCTTTGATCTCTGACTCATTTCTGCACTA
B3: binds [2].

B4: AICE2FLIP (AICE2 5'TTTC) (dsDNA)
DNA 1: AGCTTAGTGCATTTCTGAGTCAGAGATCAAAGAAG
DNA 2: AGCTCTTCTTTGATCTCTGACTCAGAAATGCACTA
B4: binds [2]; no binding [3].
